Ends that are not written are not given here.

This note sets out measurements from patent US20140248710A1.

This assay concerns the target G-131-C affinity purified goat polyclonal antibody against the N-terminus of cardiac troponin I (BiosPacific, Emeryville, Calif.). The experiment in a line: Competition FRET: the unlabeled N-terminal CTnI peptide is titrated against the labeled peptide-oligo conjugates for binding to G-131-C. The antibody concentration of the inset is not given. [inset].

On to MADGSSDAAREPRPAC (not fully specified) [Unlabeled N-terminal CTnI peptide], for which the IC50 (read off the curve) was 40 nM.
